Legend:
[1] = biological target: A2ML1-CC (TEV-P-cleaved A2ML1t with covalently conjugated TEV-P) (human | tobacco etch virus) (UniProt A8K2U0); assay: cryo-EM structure; TEV-P-cleaved A2ML1t samples on grids; monomers and dimers separated by 2D classification, multi-class ab initio reconstruction and heterogeneous refinement
[2] = biological target: TEV-P-cleaved A2ML1t prepared in the presence of BAPN, without conjugated TEV-P (human) (UniProt A8K2U0); assay: as above

TEV-P-cleaved A2ML1t prepared in the presence of BAPN, without conjugated TEV-P, sequence (A8K2U0 19-1454): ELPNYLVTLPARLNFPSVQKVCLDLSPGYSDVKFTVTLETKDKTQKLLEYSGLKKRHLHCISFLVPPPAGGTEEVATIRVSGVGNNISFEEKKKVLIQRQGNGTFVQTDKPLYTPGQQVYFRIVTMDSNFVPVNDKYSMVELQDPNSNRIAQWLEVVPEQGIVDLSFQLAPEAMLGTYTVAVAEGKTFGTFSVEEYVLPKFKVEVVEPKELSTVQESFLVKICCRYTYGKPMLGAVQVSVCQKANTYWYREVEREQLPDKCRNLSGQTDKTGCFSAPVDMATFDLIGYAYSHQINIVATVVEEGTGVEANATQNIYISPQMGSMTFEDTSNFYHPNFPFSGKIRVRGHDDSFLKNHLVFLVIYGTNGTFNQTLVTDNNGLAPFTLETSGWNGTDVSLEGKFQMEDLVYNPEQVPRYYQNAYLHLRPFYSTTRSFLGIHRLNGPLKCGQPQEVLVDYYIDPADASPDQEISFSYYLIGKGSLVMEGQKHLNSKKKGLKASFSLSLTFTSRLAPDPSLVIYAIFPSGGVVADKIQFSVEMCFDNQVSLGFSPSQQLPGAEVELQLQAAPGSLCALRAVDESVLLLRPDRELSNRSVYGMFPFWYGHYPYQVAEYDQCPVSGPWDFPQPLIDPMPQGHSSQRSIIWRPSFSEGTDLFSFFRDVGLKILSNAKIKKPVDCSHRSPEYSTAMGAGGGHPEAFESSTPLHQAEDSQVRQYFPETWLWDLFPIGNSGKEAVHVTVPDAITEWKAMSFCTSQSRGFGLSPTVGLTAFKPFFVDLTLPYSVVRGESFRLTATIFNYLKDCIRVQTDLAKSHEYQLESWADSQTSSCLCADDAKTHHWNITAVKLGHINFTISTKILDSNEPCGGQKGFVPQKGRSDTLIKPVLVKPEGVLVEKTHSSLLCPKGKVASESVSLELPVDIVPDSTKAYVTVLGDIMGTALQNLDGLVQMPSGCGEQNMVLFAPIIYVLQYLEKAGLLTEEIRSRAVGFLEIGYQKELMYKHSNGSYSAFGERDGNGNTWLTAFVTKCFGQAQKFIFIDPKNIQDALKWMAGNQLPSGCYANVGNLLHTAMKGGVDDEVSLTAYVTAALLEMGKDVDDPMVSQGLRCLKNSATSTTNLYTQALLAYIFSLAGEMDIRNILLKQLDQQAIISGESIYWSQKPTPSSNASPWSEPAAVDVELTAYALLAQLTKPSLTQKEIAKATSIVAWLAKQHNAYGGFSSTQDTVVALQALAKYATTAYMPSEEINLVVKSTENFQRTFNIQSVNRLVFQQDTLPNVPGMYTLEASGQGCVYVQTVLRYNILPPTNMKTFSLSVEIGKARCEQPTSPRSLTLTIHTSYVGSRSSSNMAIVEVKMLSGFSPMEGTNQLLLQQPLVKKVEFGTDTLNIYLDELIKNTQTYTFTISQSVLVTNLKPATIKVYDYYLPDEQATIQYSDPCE
TEV-P-cleaved A2ML1t prepared in the presence of BAPN, without conjugated TEV-P, sequence (A8K2U0 19-1454): as above
A2ML1-CC (TEV-P-cleaved A2ML1t with covalently conjugated TEV-P), sequence (A8K2U0 whole entry, looked up, one chain of several): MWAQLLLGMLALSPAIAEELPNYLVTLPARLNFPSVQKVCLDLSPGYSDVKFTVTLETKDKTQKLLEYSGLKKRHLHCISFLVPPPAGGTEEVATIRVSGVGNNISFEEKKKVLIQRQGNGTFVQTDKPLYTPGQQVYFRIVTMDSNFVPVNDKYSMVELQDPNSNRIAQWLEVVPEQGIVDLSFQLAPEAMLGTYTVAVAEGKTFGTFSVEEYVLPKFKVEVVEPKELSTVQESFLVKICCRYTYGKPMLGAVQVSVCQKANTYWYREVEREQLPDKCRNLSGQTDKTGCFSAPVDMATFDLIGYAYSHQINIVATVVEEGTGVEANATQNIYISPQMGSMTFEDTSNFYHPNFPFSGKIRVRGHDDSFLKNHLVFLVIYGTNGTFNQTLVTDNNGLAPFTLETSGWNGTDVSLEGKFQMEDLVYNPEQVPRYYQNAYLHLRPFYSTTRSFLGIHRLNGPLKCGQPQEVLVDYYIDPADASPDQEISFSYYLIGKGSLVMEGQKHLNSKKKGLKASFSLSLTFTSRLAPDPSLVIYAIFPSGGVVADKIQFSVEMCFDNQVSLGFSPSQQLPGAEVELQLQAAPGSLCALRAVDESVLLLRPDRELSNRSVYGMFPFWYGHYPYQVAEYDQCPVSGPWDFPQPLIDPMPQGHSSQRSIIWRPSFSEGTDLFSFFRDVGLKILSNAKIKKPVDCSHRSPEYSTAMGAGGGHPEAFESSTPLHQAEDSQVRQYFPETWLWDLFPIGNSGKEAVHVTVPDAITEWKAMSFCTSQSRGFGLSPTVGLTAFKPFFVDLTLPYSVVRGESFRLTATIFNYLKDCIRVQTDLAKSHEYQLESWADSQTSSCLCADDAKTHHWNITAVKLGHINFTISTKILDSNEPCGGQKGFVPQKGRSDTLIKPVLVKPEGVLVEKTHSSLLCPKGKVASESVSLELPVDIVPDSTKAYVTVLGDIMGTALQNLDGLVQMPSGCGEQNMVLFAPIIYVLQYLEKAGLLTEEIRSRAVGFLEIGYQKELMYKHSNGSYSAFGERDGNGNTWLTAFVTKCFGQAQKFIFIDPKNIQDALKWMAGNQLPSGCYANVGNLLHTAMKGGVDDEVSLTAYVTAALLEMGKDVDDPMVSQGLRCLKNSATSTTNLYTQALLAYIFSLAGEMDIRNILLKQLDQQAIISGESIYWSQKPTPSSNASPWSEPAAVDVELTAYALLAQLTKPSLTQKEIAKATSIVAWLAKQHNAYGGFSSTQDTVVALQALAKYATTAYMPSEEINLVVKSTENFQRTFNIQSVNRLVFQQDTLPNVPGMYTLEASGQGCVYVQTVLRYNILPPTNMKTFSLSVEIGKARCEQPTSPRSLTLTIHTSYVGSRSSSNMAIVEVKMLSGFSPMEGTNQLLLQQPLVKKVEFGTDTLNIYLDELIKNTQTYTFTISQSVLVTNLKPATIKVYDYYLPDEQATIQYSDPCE

fraction of picked particles that were dimers (fraction of particles) [2] | stoichiometry N [2] | Substance | fraction of picked particles that were dimers (fraction of particles) [1]
– | – | A2ML1-CC (TEV-P-cleaved A2ML1t with covalently conjugated TEV-P) (from UniProt A8K2U0 19-1454; A8K2U0 19-1454) (complex) | 0.167
0.167 | 2 | TEV-P-cleaved A2ML1t prepared in the presence of BAPN, without conjugated TEV-P (from UniProt A8K2U0 19-1454; A8K2U0 19-1454) | –
